Source: the DeepSol protein solubility set

test: soluble on expression in E. coli; label from the status in PepcDB or PDB records

Q: Which “soluble on expression in E. coli” value does the source give for “MTRSRLKIDRHGKEEDAMDLIDTHQHLILRGKLGYAWTRGEPSLAGSFTRADYAALVEGSGVIGTIFMETGVDDGDYRAEARLVAGMVGEGTLPMFGQIASCRPETDQGFDAWLEECRHLKVVGFRRILQVMPDDTSRAENYRRNVRKIGKAGWPVDLCFHSRQLAIAAELVRACPDVRFMLDHCGTPDIAGNDFPAWSERMADLASLPNLFVKLSGVTAYCAPGQVTLESVRPYVETVLKLFGPARMVWGGDWPVVDLGSGLPEWIAMTREFLSTLSPDEQASIGHGNARRFYLATLEHHHHHH” here?
A: Its value is “not soluble”.

Q: For “HHHHHHAIAENLYFQSGRYRIRVATGAWLFSGSYNRVQLWLVGTRGEAELELQLRPARGEEEEFDHDVAEDLGLLQFVRLRKHHWLVDDAWFCDRITVQGPGACAEVAFPCYRWVQGEDILSLPEGTARLPGDNALDMFQKHREKELKDRQQIYCWATWKEGLPLTIAADRKDDLPPNMRFHEEKRLDFEWTLKAGALEMALKRVYTLLSSWNCLEDFDQIFWGQKSALAEKVRQCWQDDELFSYQFLNGANPMLLRRSTSLPSRLVLPSGMEELQAQLEKELQNGSLFEADFILLDGIPANVIRGEKQYLAAPLVMLKMEPNGKLQPMVIQIQPPSPSSPTPTLFLPSDPPLAWLLAKSWVRNSDFQLHEIQYHLLNTHLVAEVIAVATMRCLPGLHPIFKFLIPHIRYTMEINTRARTQLISDGGIFDKAVSTGGGGHVQLLRRAAAQLTYCSLCPPDDLADRGLLGLPGALYAHDALRLWEIIARYVEGIVHLFYQRDDIVKGDPELQAWCREITEVGLCQAQDRGFPVSFQSQSQLCHFLTMCVFTCTAQHAAINQGQLDWYAWVPNAPCTMRMPPPTTKEDVTMATVMGSLPDVRQACLQMAISWHLSRRQPDMVPLGHHKEKYFSGPKPKAVLNQFRTDLEKLEKEITARNEQLDWPYEYLKPSCIENSVTI”, which “soluble on expression in E. coli” value is on record?
A: Its value is “soluble”.

Q: With “MSAVLNGKKPVSILLLGTDTGALGRNYKGRTDTIILATINPKTKTTTLMSLPRDSEVAVSGFEQDFPTKLNAAYAYGSAGTTIKTVQKWLNVPIDYYALINMGGMKKVVDEIGGVDITPIRTFTYEGYTFTKGQKEHMNGAKALAYSRMRYDDPLGDYGRQQRQRQLITAIIGESASASNLLKQDFLNSLAKQTRTDLTFGNLTSIVTNYRSATKNIVSDHAQGTGKMIDGQSFEVVSQSEKQRVTNVLRKSLNLKAATTGEKFANQNLEHHHHHH” as the sequence, how does the “soluble on expression in E. coli” value read?
A: The value was “soluble”.

Q: Which “soluble on expression in E. coli” value does the source give for “MGFIMLLRSRFLKVIHVRKQLSACSRFAIQTQTRCKSTDASEDEVKHFQELAPTWWDTDGSQRILHKMNLTRLDFVQRTVRNQVKIQNPEIFVPGFNYKEFLPEYVCDNIQREMQESIETNLDKRPEVSVLDVGCGGGILSESLARLKWVKNVQGIDLTRDCIMVAKEHAKKDPMLEGKINYECKALEDVTGQFDIITCMEMLEHVDMPSEILRHCWSRLNPEKGILFLSTINRDLISWFTTIFMGENVLKIVPKGTHHLSKYINSKEILAWFNDNYSGQFRLLDLKGTMYLPYQGWVEHDCSDVGNYFMAIQRLN” here?
A: The value was “not soluble”.

Q: For “MGSDKIHHHHHHMLGQRIKSLRKAKKLTQSDVADGIMTKSMLSMIENEKATPSLPALQSIAHRLHVSIDALLIDPRAVEMKQMIEKINSTASGYYAEGQIATMLEPYLEPAINSYWQGQIYYEYGSALRFSDTEKGLHYFDLAEDVFQQLGLRDEQIKVQISKVYFLFFLRRYEEAYRKIDGMMIFQDVPLAHETFLDYQMLQAIRVSVINDNWSQSIVFLREGIRYMREKGVYSDVSNYHRLLALFLSLEEDYEAAEFELEKLRHFFLFTEATALDQILVDLTKGSIAVHREDYAGIREARERLIEVEIEACLHYIGYFEVYLCLWNDSKEELTFDLPSAVSKIWRNAHLWRAGGEYDHAMMLYALAFAMQAGVGLDRQAEVEELTTQLSPGHFKQKIEQTLARLT”, which “soluble on expression in E. coli” value is on record?
A: Its value is “not soluble”.

Q: Which “soluble on expression in E. coli” value does the source give for “QLVWGPDLSEKASAQRTRVFVDAARRGEIYDNTGQLLAYTMQARSLTASPKQLRKEIEYTAKIELQDEKEYSSWDENQRKKKIEDKVDSYLEEYSNEIPKIIKDSEASANDIKSKDILKKLKADTSYEVLVRNVDPDVAENIAQKFHGIAADLQQIRQYPNGAVAENVIGKISQDGQGQFGFESSNNSVLSGIDGRKTLDVAASGEVIPGSLRDEVPATNGANVTLTLDLDMQTYVQQQLEQAVSNSGAQSASAVVLDVKTGKVLTMANSGTINPNGDIEKQLKDNKSFENTTISSPFEPGSVAKIITAAGVIEDGKSTPDEVLQVPGSIEMSGVNVRDAWEHGTVGYTTTGIFGKSSNVGTLMLAQRLGEQRFNDLLHRFGIGQNTGIELPVESQGLLPDISQ” here?
A: The value was “not soluble”.

Q: Which “soluble on expression in E. coli” value does the source give for “MNASLTPDQVSKKLKQFFSDHLPISQFMGLEIESYDGDTLILTAPLEPNINDKQTAFGGSLYNAAVMACWGMVYLKTQEENIACNQVVTEGNMKYIAPVYGRIRAICHAPDEEELANFFDHFERKGKARISLEAAIYNDACVMKIEPETKPSVKFNGQYAILKNQ” here?
A: Its value is “soluble”.

Q: With “MGSDKIHHHHHHMAKVEELTPQQLSETDLKPRGRVYPSPISWRDQFLYQLVLDRFSDDNENQRELFDHTNLAKFQVKDKAGWMAAGTKFVGGTLRGIKSKLDYLQRLGVTTLWINPPWQQRSELEAYHSDRIQEFLDIDPHFGTRQDLRDLIDAAHDRRMYVILDVIYNQNADNWFHRNDVIAALARVYQYWIALSDCDGLRIDSLKHVSPEDSRKFCTAIREYAESIDKDNFLLTGEITSGSMAGAYIDIIARNFSAVLDIAQTPNELAAFAKGLVHPKQFFDLYSENNLAGEYRQIGTYHVSILDDYEMSFRTNKQRFAAYSNVPHLYEQVAHAVGVQLTMPGIPAIYYGTEQAFDGNEGYHDYSIEGRKFAEDRYIKEAMFGGAFGAFQTADCHFFDIDHPTYLRIAAIARIRNSHDKIGKALRRGHHYLRETSFFNSPFSIPGQGELVAWSQTLFDTEVLMVLNTNGLENRGAEVTVDTYMHPQDSTMTFLYKSDWSDSYLRHPPRDQTVAVQHHNDRRATVRIDLPPSGMAILA” as the sequence, how does the “soluble on expression in E. coli” value read?
A: Its value is “not soluble”.

Q: Which “soluble on expression in E. coli” value does the source give for “MSTSAGSSGAAASEPTTAKSLTYSETMNDLRKGSLFGRQKESLATTDGGPQPSSLDDKSQQFKNPIESDKPGPSTEPGRSAKIEQEAPAPTLKKSETPPAFGLSGVVKKVPSVYFPIFNKLGVKIPGFLPSLRETKINAPHIVYDVRRLRLLQKRQRPIKQLWLRLQFQLRFQMQLLKAQTKSSRVPDNASAVMWLHYIEVIEDHCTADC” here?
A: Its value is “not soluble”.

Q: Which “soluble on expression in E. coli” value does the source give for “MGSDKIHHHHHHMTSKITRQANASEDSLLRIFTAPEDSTSTLSIIEQKLSQDLAGFLGNSIAALEKPLSEIETDFSAYQIPTEPKFVSDYADEIMQNLVAHSVHTSAPSFIGHMTSALPYFVLPLSKMMVGLNQNLVKIETSKAFTPLERQVLGMMHNLVYQQSDDFYHQWMHSANHSLGAFCSGGTVANITALWIARNRLLQPRGDFKGVTREGMTKALRFYGYDDLAILVSDRGHYSLGKTADLLGIGRDNIISIPTDEHHKVDVAAMRDAAEKLAQQNIKVMAIVGIAGTTETGNVDPLTELAALASELNCHFHVDAAWGGASLLSKKYSHLLKGIELADSVTIDAHKQMYVPMGAGMVLFKDPELAKAIVHHAEYILRVGSKDLGSQTLEGSRPGMAMLVHACLQIIGRDGYEILINNSLEKARYFGSIIDQHADFELVTAPELCLLTYRYVPKSVQAILTTALANQDSALVASINELLDGLTQFIQKHQREQGKSFVSRTRIKPAKYLRQPTTVFRVVLANPLTSHQILHDVLTEQVEIAALDSEYLPQLLAL” here?
A: Its value is “not soluble”.

Q: Which “soluble on expression in E. coli” value does the source give for “MSDISRGDIRVKGFTDSEMDFQLIRQLGSSSYRAASVGECLNIANTMKNEDPEEWVRQFERLAEWQKKDGLERMVKNHVISGREQLFKASNSFRAAEYYSPPSSEHHRKLGLNSADCFCTAISSMDIHFENHSIPYKNINLPCYFISPANDGEKRDTVMIVSGFDGTLEEEFLMRGLAAVERGYNVIHFAGPGQMDVFRKYPDTYFEPDFEQVVKRIINYFEFRQEINMAKLTLMGISFGGYFATRAASHEPRIKVLIANSPILDLHAYMCSFVKMDPCEMPDSEDFSINDLPSIPNEVMPPQLKAQTEHLIRRFGQPTFKATFHYLREFTVGDSLNHIKIPCLALLGSGEGGEPGKQFAEFCKITNSAQYEFSDFEGAGSHCQVGNVSYSNAVVYDWLDSL” here?
A: The value was “not soluble”.
